Assay results: article PMC11574045, “A cofactor-induced repressive type of transcription factor condensation can be induced by synthetic peptides to suppress tumorigenesis” (The EMBO Journal, 2024)

System: HEK293FT cells transfected with TF library
Assay: Screening of TF condensates based on fluorescent puncta
Format: cell-based
Conditions: Figure 1B numerical data; TF library screen, one value per transcriptional factor
In short: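 HEK293FT, PEI transfection of TF library, 60 h; ±glucose 12 h; 4% PFA fix, 0.05% Triton X-100 permeabilization, 5% BSA block; anti-Flag/anti-GAL4 overnight at 4 °C, Alexa 488 secondary 1 h; high-content imaging, 50 fields/well.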

B1: MBLR (protein, UniProt Q9BYE7 1-350, looked up)
Polycomb group RING finger …: MEGVAVVTAGSVGAAKTEGAAALPPPPPVSPPALTPAPAAGEEGPAPLSETGAPGCSGSRPPELEPERSLGRFRGRFEDEDEELEEEEELEEEEEEEEEDMSHFSLRLEGGRQDSEDEEERLINLSELTPYILCSICKGYLIDATTITECLHTFCKSCIVRHFYYSNRCPKCNIVVHQTQPLYNIRLDRQLQDIVYKLVINLEEREKKQMHDFYKERGLEVPKPAVPQPVPSSKGRSKKVLESVFRIPPELDMSLLLEFIGANEGTGHFKPLEKKFVRVSGEATIGHVEKFLRRKMGLDPACQVDIICGDHLLEQYQTLREIRRAIGDAAMQDGLLVLHYGLVVSPLKIT
Z score of condensed fraction: 0.4702

B2: ASCL4 (protein, UniProt Q6XD76 1-172, looked up)
Achaete-scute homolog 4: METRKPAERLALPYSLRTAPLGVPGTLPGLPRRDPLRVALRLDAACWEWARSGCARGWQYLPVPLDSAFEPAFLRKRNERERQRVRCVNEGYARLRDHLPRELADKRLSKVETLRAAIDYIKHLQELLERQAWGLEGAAGAVPQRRAECNSDGESKASSAPSPSSEPEEGGS
Z score of condensed fraction: 1.17

B3: MAGED1 (protein, UniProt Q9Y5V3 1-778, looked up)
Melanoma-associated antigen D1: MAQKMDCGAGLLGFQAEASVEDSALLMQTLMEAIQISEAPPTNQATAAASPQSSQPPTANEMADIQVSAAAARPKSAFKVQNATTKGPNGVYDFSQAHNAKDVPNTQPKAAFKSQNATPKGPNAAYDFSQAATTGELAANKSEMAFKAQNATTKVGPNATYNFSQSLNANDLANSRPKTPFKAWNDTTKAPTADTQTQNVNQAKMATSQADIETDPGISEPDGATAQTSADGSQAQNLESRTIIRGKRTRKINNLNVEENSSGDQRRAPLAAGTWRSAPVPVTTQNPPGAPPNVLWQTPLAWQNPSGWQNQTARQTPPARQSPPARQTPPAWQNPVAWQNPVIWPNPVIWQNPVIWPNPIVWPGPVVWPNPLAWQNPPGWQTPPGWQTPPGWQGPPDWQGPPDWPLPPDWPLPPDWPLPTDWPLPPDWIPADWPIPPDWQNLRPSPNLRPSPNSRASQNPGAAQPRDVALLQERANKLVKYLMLKDYTKVPIKRSEMLRDIIREYTDVYPEIIERACFVLEKKFGIQLKEIDKEEHLYILISTPESLAGILGTTKDTPKLGLLLVILGVIFMNGNRASEAVLWEALRKMGLRPGVRHPLLGDLRKLLTYEFVKQKYLDYRRVPNSNPPEYEFLWGLRSYHETSKMKVLRFIAEVQKRDPRDWTAQFMEAADEALDALDAAAAEAEARAEARTRMGIGDEAVSGPWSWDDIEFELLTWDEEGDFGDPWSRIPFTFWARYHQNARSRFPQTFAGPIIGPGGTASANFAANFGAIGFFWVE
Z score of condensed fraction: -0.7984

B4: MEIS3 (protein, UniProt Q99687 1-375, looked up)
Homeobox protein Meis3: MARRYDELPHYPGIVDGPAALASFPETVPAVPGPYGPHRPPQPLPPGLDSDGLKREKDEIYGHPLFPLLALVFEKCELATCSPRDGAGAGLGTPPGGDVCSSDSFNEDIAAFAKQVRSERPLFSSNPELDNLMIQAIQVLRFHLLELEKVHDLCDNFCHRYITCLKGKMPIDLVIEDRDGGCREDFEDYPASCPSLPDQNNMWIRDHEDSGSVHLGTPGPSSGGLASQSGDNSSDQGDGLDTSVASPSSGGEDEDLDQERRRNKKRGIFPKVATNIMRAWLFQHLSHPYPSEEQKKQLAQDTGLTILQVNNWFINARRRIVQPMIDQSNRTGQGAAFSPEGQPIGGYTETQPHVAVRPPGSVGMSLNLEGEWHYL
Z score of condensed fraction: 1.7837

B5: MLR2 (protein, UniProt Q96JN0 1-433, looked up)
Ligand-dependent corepressor: MQRMIQQFAAEYTSKNSSTQDPSQPNSTKNQSLPKASPVTTSPTAATTQNPVLSKLLMADQDSPLDLTVRKSQSEPSEQDGVLDLSTKKSPCAGSTSLSHSPGCSSTQGNGRPGRPSQYRPDGLRSGDGVPPRSLQDGTREGFGHSTSLKVPLARSLQISEELLSRNQLSTAASLGPSGLQNHGQHLILSREASWAKPHYEFNLSRMKFRGNGALSNISDLPFLAENSAFPKMALQAKQDGKKDVSHSSPVDLKIPQVRGMDLSWESRTGDQYSYSSLVMGSQTESALSKKLRAILPKQSRKSMLDAGPDSWGSDAEQSTSGQPYPTSDQEGDPGSKQPRKKRGRYRQYNSEILEEAISVVMSGKMSVSKAQSIYGIPHSTLEYKVKERLGTLKNPPKKKMKLMRSEGPDVSVKIELDPQGEAAQSANESKNE
Z score of condensed fraction: 0.991

B6: MDFI (protein, UniProt Q99750 1-246, looked up)
MyoD family inhibitor: MYQVSGQRPSGCDAPYGAPSAAPGPAQTLSLLPGLEVVTGSTHPAEAAPEEGSLEEAATPMPQGNGPGIPQGLDSTDLDVPTEAVTCQPQGNPLGCTPLLPNDSGHPSELGGTRRAGNGALGGPKAHRKLQTHPSLASQGSKKSKSSSKSTTSQIPLQAQEDCCVHCILSCLFCEFLTLCNIVLDCATCGSCSSEDSCLCCCCCGSGECADCDLPCDLDCGILDACCESADCLEICMECCGLCFSS
Z score of condensed fraction: 0.558

B7: MLLT10 (protein, UniProt P55197 1-1068, looked up)
Protein AF-10: MVSSDRPVSLEDEVSHSMKEMIGGCCVCSDERGWAENPLVYCDGHGCSVAVHQACYGIVQVPTGPWFCRKCESQERAARVRCELCPHKDGALKRTDNGGWAHVVCALYIPEVQFANVSTMEPIVLQSVPHDRYNKTCYICDEQGRESKAATGACMTCNKHGCRQAFHVTCAQFAGLLCEEEGNGADNVQYCGYCKYHFSKLKKSKRGSNRSYDQSLSDSSSHSQDKHHEKEKKKYKEKDKHKQKHKKQPEPSPALVPSLTVTTEKTYTSTSNNSISGSLKRLEDTTARFTNANFQEVSAHTSSGKDVSETRGSEGKGKKSSAHSSGQRGRKPGGGRNPGTTVSAASPFPQGSFSGTPGSVKSSSGSSVQSPQDFLSFTDSDLRNDSYSHSQQSSATKDVHKGESGSQEGGVNSFSTLIGLPSTSAVTSQPKSFENSPGDLGNSSLPTAGYKRAQTSGIEEETVKEKKRKGNKQSKHGPGRPKGNKNQENVSHLSVSSASPTSSVASAAGSITSSSLQKSPTLLRNGSLQSLSVGSSPVGSEISMQYRHDGACPTTTFSELLNAIHNGIYNSNDVAVSFPNVVSGSGSSTPVSSSHLPQQSSGHLQQVGALSPSAVSSAAPAVATTQANTLSGSSLSQAPSHMYGNRSNSSMAALIAQSENNQTDQDLGDNSRNLVGRGSSPRGSLSPRSPVSSLQIRYDQPGNSSLENLPPVAASIEQLLERQWSEGQQFLLEQGTPSDILGMLKSLHQLQVENRRLEEQIKNLTAKKERLQLLNAQLSVPFPTITANPSPSHQIHTFSAQTAPTTDSLNSSKSPHIGNSFLPDNSLPVLNQDLTSSGQSTSSSSALSTPPPAGQSPAQQGSGVSGVQQVNGVTVGALASGMQPVTSTIPAVSAVGGIIGALPGNQLAINGIVGALNGVMQTPVTMSQNPTPLTHTTVPPNATHPMPATLTNSASGLGLLSDQQRQILIHQQQFQQLLNSQQLTPEQHQAFLYQLMQHHHQQHHQPELQQLQIPGPTQIPINNLLAGTQAPPLHTATTNPFLTIHGDNASQKVARLSDKTGPVAQEKS
Z score of condensed fraction: 0.7939

B8: MDM4 (protein, UniProt O15151 1-490, looked up)
Protein Mdm4: MTSFSTSAQCSTSDSACRISPGQINQVRPKLPLLKILHAAGAQGEMFTVKEVMHYLGQYIMVKQLYDQQEQHMVYCGGDLLGELLGRQSFSVKDPSPLYDMLRKNLVTLATATTDAAQTLALAQDHSMDIPSQDQLKQSAEESSTSRKRTTEDDIPTLPTSEHKCIHSREDEDLIENLAQDETSRLDLGFEEWDVAGLPWWFLGNLRSNYTPRSNGSTDLQTNQDVGTAIVSDTTDDLWFLNESVSEQLGVGIKVEAADTEQTSEEVGKVSDKKVIEVGKNDDLEDSKSLSDDTDVEVTSEDEWQCTECKKFNSPSKRYCFRCWALRKDWYSDCSKLTHSLSTSDITAIPEKENEGNDVPDCRRTISAPVVRPKDAYIKKENSKLFDPCNSVEFLDLAHSSESQETISSMGEQLDNLSEQRTDTENMEDCQNLLKPCSLCEKRPRDGNIIHGRTGHLVTCFHCARRLKKAGASCPICKKEIQLVIKVFIA
Z score of condensed fraction: 2.3

B9: ASCL3 (protein, UniProt Q9NQ33 1-181, looked up)
Achaete-scute homolog 3: MMDNRGNSSLPDKLPIFPDSARLPLTRSFYLEPMVTFHVHPEAPVSSPYSEELPRLPFPSDSLILGNYSEPCPFSFPMPYPNYRGCEYSYGPAFTRKRNERERQRVKCVNEGYAQLRHHLPEEYLEKRLSKVETLRAAIKYINYLQSLLYPDKAETKNNPGKVSSMIATTSHHADPMFRIV
Z score of condensed fraction: 0.02457

B10: MEF2A (protein, UniProt Q02078 1-507, looked up)
Myocyte-specific enhancer …: MGRKKIQITRIMDERNRQVTFTKRKFGLMKKAYELSVLCDCEIALIIFNSSNKLFQYASTDMDKVLLKYTEYNEPHESRTNSDIVEALNKKEHRGCDSPDPDTSYVLTPHTEEKYKKINEEFDNMMRNHKIAPGLPPQNFSMSVTVPVTSPNALSYTNPGSSLVSPSLAASSTLTDSSMLSPPQTTLHRNVSPGAPQRPPSTGNAGGMLSTTDLTVPNGAGSSPVGNGFVNSRASPNLIGATGANSLGKVMPTKSPPPPGGGNLGMNSRKPDLRVVIPPSSKGMMPPLSEEEELELNTQRISSSQATQPLATPVVSVTTPSLPPQGLVYSAMPTAYNTDYSLTSADLSALQGFNSPGMLSLGQVSAWQQHHLGQAALSSLVAGGQLSQGSNLSINTNQNISIKSEPISPPRDRMTPSGFQQQQQQQQQQQPPPPPQPQPQPPQPQPRQEMGRSPVDSLSSSSSSYDGSDREDPRGDFHSPIVLGRPPNTEDRESPSVKRMRMDAWVT
Z score of condensed fraction: -0.6589

B11: MESP1 (protein, UniProt Q9BRJ9 1-268, looked up)
Mesoderm posterior protein 1: MAQPLCPPLSESWMLSAAWGPTRRPPPSDKDCGRSLVSSPDSWGSTPADSPVASPARPGTLRDPRAPSVGRRGARSSRLGSGQRQSASEREKLRMRTLARALHELRRFLPPSVAPAGQSLTKIETLRLAIRYIGHLSAVLGLSEESLQRRCRQRGDAGSPRGCPLCPDDCPAQMQTRTQAEGQGQGRGLGLVSAVRAGASWGSPPACPGARAAPEPRDPPALFAEAACPEGQAMEPSPPSPLLPGDVLALLETWMPLSPLEWLPEEPK
Z score of condensed fraction: -1.02
